From patent US20210332135A1 come the findings set out here.

Where only a bound is given, the exact number is not on record here.

Test [1] addresses recombinant CD47 extracellur domain protein (UniProt Q08722). Kind of test: ELISA on recombinant CD47 extracellular domain protein. On the technique in general: In an ELISA, binding on a coated surface is turned into a signal by an enzyme label.
The target of test [2] is recombinant PD-L1 extracellur domain protein (UniProt Q9NZQ7). Kind of test: ELISA on recombinant PD-L1 extracellular domain protein.
Sequence of recombinant PD-L1 extracellur domain protein (Q9NZQ7 19-238 limits assumed): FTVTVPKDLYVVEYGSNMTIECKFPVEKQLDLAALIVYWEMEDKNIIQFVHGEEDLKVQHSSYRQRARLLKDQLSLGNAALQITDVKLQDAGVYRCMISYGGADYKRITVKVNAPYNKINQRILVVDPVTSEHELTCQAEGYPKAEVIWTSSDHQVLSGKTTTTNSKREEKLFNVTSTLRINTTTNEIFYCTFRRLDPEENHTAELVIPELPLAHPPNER

Sequence of recombinant CD47 extracellur domain protein (Q08722 19-139 limits assumed): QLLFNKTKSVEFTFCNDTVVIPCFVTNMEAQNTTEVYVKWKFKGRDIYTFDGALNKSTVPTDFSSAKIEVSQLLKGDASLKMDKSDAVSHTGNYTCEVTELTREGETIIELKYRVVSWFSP

The term EC50 denotes the concentration at which the effect is half-maximal. As for “CV1, high affinity SIRPa mutant (positive control)”, the EC50 in test [1] was below 0.0001 µM. Consider “HAC, high affinity PD-1 mutant (positive control)”, for which the half-maximal effective concentration (EC50) in test [2] was below 0.0001 µM. Take “S012 (binding domain of human SIRPa, Gene 012, on human kappa light chain, co-expressed with an empty IgG1 heavy chain) (from UniProt P01834 1-107; P01857 1-330)”: the EC50 in test [1] is above 0.1 µM.

Consider “S007 (binding domain of human SIRPa, Gene 007, on human kappa light chain, co-expressed with an empty IgG1 heavy chain) (from UniProt P01834 1-107; P01857 1-330)”, for which, in test [1], the EC50 was above 0.1 µM. For “P050 (IgV domain of PD-1, lower affinity L128R mutant, Gene 050, on kappa chain, co-expressed with an empty IgG1 heavy chain) (from UniProt P01857 1-330)”, the 50% effective concentration (EC50) in test [2] was above 0.1 µM.

Consider “P048 (IgV domain of PD-1, Gene 048, on kappa chain, co-expressed with an empty IgG1 heavy chain) (from UniProt P01857 1-330)”, for which the EC50 in test [2] is above 0.1 µM.
